According to publication PMC4541418:

System: Fur (HpFur) (Helicobacter pylori (G27?))
Experiment: DNase I footprinting
Conditions: pOPI and pOPII; 150 uM dipyridyl, 1 mM DTT then 5 mM H2O2, versus no H2O2; 10 mM Tris-Cl pH 7.85, 50 mM NaCl, 10 mM KCl, 0.02% Igepal CA-630, 10% glycerol, 0.1 mM DTT (plus 1 or 5 mM DTT or 5 mM H2O2); 150 uM (NH4)2Fe(SO4)2 or …

Q: Which binding signal (fold higher Fur needed) does the source give for “Ppfr probe (apo-operators pOPI, pOPII, pOPIII; holo-operator pOPIV)” here?
A: 5
